US12258605B2, “Alkane oxidation by modified hydroxylases” (The California Institute of Technology, priority 2005, dated 2025)

Key:
Assay type in all cases: biochemical
[1] = High-throughput dimethyl ether (DME) screen; details: relative to 35-E11; normalized to P450 concentration
In short: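 Mutant P450 BM-3 variants expressed in E. coli and screened as cell lysates in KPi buffer (0.1 M, pH 8.0); dimethyl ether hydroxylation detected as formaldehyde with Purpald, absorbance 550 nm read after 1 hour. Activity relative to parent 35-E11 (8 wells each), normalised to P450 content by CO binding.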

[2] = Octane hydroxylation (rate, ttn, regio- and enantioselectivity)
Experimental: (§1) Cell lysates for high throughput screening were prepared as described previously (Peters et al., J. Am. Chem. Soc. 125:13442 (2003); incorporated by reference herein). High-throughput dimethyl ether (DME) screens were performed in 96 well plates as described previously. Improved mutants were selected based on an increased signal compared to 9-10A (for the saturation mutagenesis libraries) and 1-12G (for the recombination library). Reactions on octane and propane were analyzed by gas chromatography as described.
(§2) Rates of ethanol formation were measured over 30 min using gas chromatography (GC) coupled to an electron capture detector (ECD) and are reported as nmol ethanol/min/nmol enzyme. Errors are at most 10%. Total turnover number (ttn) was measured using GC after completion of the reaction and is reported as nmol product/nmol protein. Errors are at most 10%. Initial rates of propanol and octanol formation were measured over 1 min by GC and are reported as nmol product/min/nmol protein. Errors are at most 15%. The “ee” of 2-octanol (main product) was measured by GC; the favored enantiomer is listed in parenthesis. Wild-type P450 BM-3 primarily produces 3- and 4-octanol. The yields were not sufficient for the determination of ee for wt BM-3. Mutant 9-10A contains amino acid substitutions R47C, V78A K94I, P142S, T175I, A184V, F205C, S226R, H236Q, E252G, R255S, A290V, and L353V.
(§3) In Table 5 the product distribution is determined as ratio of a specific alcohol product to the total amount of all alcohol products (given in %). The product distribution for ketones was similar to alcohol product distribution. The numbers reported here are the (%) total of all ketones relative to total products (alcohols+ketones). The favored enantiomer is listed in parentheses.
(§4) For the data shown in Table 6 the initial NADPH consumption rates were measured over 15 seconds at 340 nm as nmol NADPH/min/nmol protein. Octane reactions contained 100 nM P450, 166 uM NADPH, and 4 mM octane in 1% ethanol and potassium phosphate buffer. […] Errors are at most 10%. Initial rates were measured by GC over 1 minute as nmol total products/min/nmol protein. Octane reactions contained 100 nM P450, 500 uM NADPH, and 4 mM octane in 1% ethanol and potassium phosphate buffer. Propane reactions contained 1 uM P450, 500 uM NADPH, and propane-saturated potassium phosphate buffer. Coupling was determined by ratio of product formation rate to NADPH consumption rate. Total turnover numbers were determined as nmol product/nmol enzyme. Octane reactions contained 10-25 nM P450, 500 uM NADPH, and 4 mM octane in 1% ethanol and potassium phosphate buffer. Propane reactions contained 10-25 nM protein, potassium phosphate buffer saturated with propane, and an NADPH regeneration system containing 100 uM NADP+, 2 U/mL isocitrate dehydrogenase, and 10 mM isocitrate.
Twenty-one single active site mutants with increased activity towards either of these substrates were isolated. Mutations that improved the activity were found at amino acid positions L75 (I, W), A78 (T, F, S), A82 (T, S, F, I, C, G, L), F87 (I, V, L), T88 (C), T260 (N, L, S) and A328 (L, F, M). The single active site mutants of 9-10A were characterized by their altered regioselectivity towards octane. Each of these mutations produces a characteristic octanol product distribution as a result of their presence altering the active site geometry above the heme cofactor. Transformations were carried out using cell lysates. The mutations were generated in variant 9-10A (with amino acid mutations R47C, V78A, K94I, P142S, T175I, A184V, F205C, S226R, H236Q, E252G, R255S, A290V, L353V). “Others” indicates over oxidation products (ketones and aldehydes) with a similar product distribution as the alcohols. “Rate” was measured as nmol octanol/nmol P450/minute. “TTN” was measured as nmol octanol/nmol P450 produced in 4 hour reaction.
Mutations are relative to variant 9-10A (described above). Wild-type has a valine at position 78. […]

[3] = Propane hydroxylation (rate, total turnover, products)
Experimental: as §1, §2, §3, §4

B1: 35-E11: P450 BM-3 variant, SEQ ID NO:7: 53-5H substitutions plus E464G and I710T (protein)
chain: TIKEMPQPKTFGELKNLPLLNTDKPVQALMKIADELGEIFKFEAPGCVTRYLSSQRLIKEACDESRFDKNLSQALKFFRDFSGDGLFTSWTHEINWKKAHNILLPSFSQQAMKGYHAMMVDIAVQLVQKWERLNADEHIEVSEDMTRLTLDTIGLCGFNYRFNSFYRDQPHPFIISMVRALDEVMNKLQRANPDDPAYDENKRQCQEDIKVMNDLVDKIIADRKARGEQSDDLLTQMLNGKDPETGEPLDDGNISYQIITFLIAGHETTSGLLSFALYFLVKNPHVLQKVVEEAARVLVDPVPSYKQVKQLKYVGMVLNEALRLWPTFPAFSLYAKEDTVLGGEYPLEKGDEVMVLIPQLHRDKTIWGDDVEEFRPERFENPSAIPQHAFKPFGNGQRACIGQQFALHEATLVLGMMLKHFDFEDHTNYELDIKETLTLKPEGFVVKAKSKKIPLGGIPSPSTGQSAKKVRKKAENAHNTPLLVLYGSNMGTAEGTARDLADIAMSKGFAPQVATLDSHAGNLPREGAVLIVTASYNGHPPDNAKQFVDWLDQASADEVKGVRYSVFGCGDKNWATTYQKVPAFIDETLAAKGAENIADRGEADASDDFEGTYEEWREHMWSDVAAYFNLDIENSEDNKSTLSLQFVDSAADMPLAKMHGAFSTNVVASKELQQPGSARSTRHLEIELPKEASYQEGDHLGVIPRNYEGTVNRVTARFGLDASQQIRLEAEEEKLAHLPLAKTVSVEELLQYVELQDPVTRTQLRAMAAKTVCPPHKVELEALLEKQAYKEQVLAKRLTMLELLEKYPACEMKFSEFIALLPSIRPRYYSISSSPRVDEKQASITVSVVSGEAWSGYGEYKGIASNYLAELQEGDTITCFISTPQSEFTLPKDPETPLIMVGPGTGVAPFRGFVQARKQLKEQGQSLGEAHLYFGCRSPHEDYLYQEELENAQSEGIITLHTAFSRMPNQPKTYVQHVMEQDGKKLIELLDQGAHFYICGDGSQMAPAVEATLMKSYADVHQVSEADARLWLQQLEEKGRYAKDVWAG
modifications: mutant P450 35-E11 protein sequence
For B1, the “Relative DME activity in screen” value [1] was 1, the Octane ttn ([2]; 1% ethanol) was 8000 nmol product/nmol protein and the Octane % ee ([2]; ee of 2-octanol (main product), favored enantiomer (S)) was 65%. The “Octane Rate” value ([2]; initial rate of octanol formation over 1 min, 1% ethanol) was 420 nmol product/min/nmol protein, the “Octane % 2-octanol” value ([2]; regioselectivity) was 89% and the Propane ttn ([3]; after completion of the reaction) was 6000 nmol product/nmol protein. The “Propane Rate” value ([3]; initial rate of propanol formation over 1 min by GC) was 210 nmol product/min/nmol protein.
